In experiment [1] the target is T1, Recombinant human TfR (R&D Systems, Catalog number 2474-TR) (human, UniProt P02786 89-760).
T1 construct: Bought recombinant protein; also called Histidin-tagged human TfR; TfR-His; not shown: histidine tag
Nature of the experiment: ELISA, recombinant human TfR coated on plate. The procedure: For the determination of the specificity of the antibody an ELISA test may be applied using the following protocol. Recombinant human TfR (as obtained from R&D Systems, Catalog number 2474-TR) are directly coated on a 96 well plate overnight and washed twice before incubation with several dilutions (10) of the antibody (murine and humanized mAb) (dilution may start at the concentration of 50 μg/ml through 0,001 ug/ml) and incubate 1 hour at room temperature. After two washes a secondary antibody Goat-anti Human IgG is incubated Incubate 1 hour at room temperature in the dark, washed twice and incubated with the TMB solution for 10 minutes before reading the absorbance at 450 nm.
A general note: In an ELISA, binding on a coated surface is turned into a signal by an enzyme label.

Experiment [2] addresses T1, Recombinant human TfR (R&D Systems, …). As to the kind of experiment: SPR (Biacore), His-tagged human TfR captured on anti-Penta-His CM5 chip, antibody injected. The procedure:
Histidin-tagged human TfR (as obtained from R&D Systems, Catalog number 2474-TR) was bound after passage on covalently immobilized Penta-His mAb CM5 sensor chip. Ten different concentrations of antibody (1 to 500 nM) were injected across the anti-His/TfR-His surface for 4 minutes and the dissociation complexes was followed for 5 minutes. Both association and dissociation profiles are analyzed with a nonlinear square algorithm implemented in the BIAevalution software using single-exponential functions of time.

This is an account of results in US20220119543A1 (INATHERYS, published 2022).

A word on the EC50: it is the midpoint of the concentration-response curve. What is called Kd is the concentration at which binding is half-saturated.

T1 sequence (P02786 89-760 limits assumed): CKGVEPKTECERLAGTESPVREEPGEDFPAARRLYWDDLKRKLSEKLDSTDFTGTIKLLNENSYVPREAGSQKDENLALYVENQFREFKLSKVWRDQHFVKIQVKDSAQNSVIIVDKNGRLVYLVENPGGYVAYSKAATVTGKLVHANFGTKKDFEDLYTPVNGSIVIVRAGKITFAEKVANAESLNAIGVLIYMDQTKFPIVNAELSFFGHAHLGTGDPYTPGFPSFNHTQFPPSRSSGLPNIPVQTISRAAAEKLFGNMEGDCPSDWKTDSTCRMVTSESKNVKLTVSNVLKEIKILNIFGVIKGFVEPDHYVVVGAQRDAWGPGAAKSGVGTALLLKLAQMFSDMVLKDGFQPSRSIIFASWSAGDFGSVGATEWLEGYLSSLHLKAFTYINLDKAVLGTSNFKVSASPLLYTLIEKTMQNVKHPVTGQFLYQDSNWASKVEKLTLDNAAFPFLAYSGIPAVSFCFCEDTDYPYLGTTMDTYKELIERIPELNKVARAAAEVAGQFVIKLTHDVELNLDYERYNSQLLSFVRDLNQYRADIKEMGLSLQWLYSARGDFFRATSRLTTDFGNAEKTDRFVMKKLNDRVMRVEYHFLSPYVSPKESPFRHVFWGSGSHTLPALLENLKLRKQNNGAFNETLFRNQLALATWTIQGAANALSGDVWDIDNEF

B1: mAb1 (antibody, human IgG4 S228P, kappa, V domains shown)
VH: QVQLVQSGPELKKPGASVKVSCKASGYTFTNQGMNWVKQAPGKGLKWMGWINTYTGEPINADDFKGRFVISLDTSASTAYLQISSLKAEDTAVYFCVREGWDSMDYWGQGTSVTVSS
VL: QIVLTQSPATLSVSPGERATLSCSASSSVNYMHWFQQKPGQSPRLLIYSTSNRATGIPARFSGSGSGTSYTLTISSLEPEDFAVYYCQQRSSYPLTFGQGTKLEIKR
notes: Humanized A24, human IgG4 isotype; also called VH4/VL4 with IgG4 Fc region
As for B1, the 50% effective concentration (EC50) in experiment [1] was determined as 0.024 µg/mL. Moreover, the dissociation constant Kd in experiment [2] was 0.315 nM.
